pKd: −log10 of the molar value.
Target: extracellular domain of basigin (CD147-ED)
Experiment: SPR; ProteOn XPR36, CD147-ED immobilised on an activated GLC chip; CD98-ED injected at 0, 3, 1.5, 0.75, 0.375, 0.1875 uM, association 180 s, dissociation 600 s; 1:1 binding model

extracellular domain of CD98 (CD98-ED, residues 111-530 of human 4F2hc) (domain or fragment)
pKd: 6.73
